Patent US10098870B2 (JENKEM TECHNOLOGY CO., LTD. (BEIJING), priority 2013, dated 2018)
Read-outs that look alike come from different tables or passages of the source.

Legend:
[1] = Body weight, survival and tolerance of mice bearing Calu-6 (Example 9); settings: mean ± SE;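 also: nude mice bearing Calu-6 tumours, established by implanting 5.0×10^6 cells at the right shoulder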
Protocol: 5.0×10^6 of Calu-6 tumor cells were suspended in 0.1 ml of PBS, inoculated to each nude mouse at the right shoulder, and there were totally 34 mice inoculated.

[2] = Body weight, survival and tolerance of mice bearing A549 (Example 10); settings: mean ± SE;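 also: nude mice, each given 1.0×10^7 A549 tumor cells in the right shoulder region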
Protocol: 1.0×10^7 of A549 tumor cells were suspended in 0.1 ml of PBS, inoculated to each nude mouse at the right shoulder, and there were totally 36 mice inoculated.

[3] = Body weight, survival and tolerance of mice bearing Hep3B (Example 7); assay type: in vivo, mouse; settings: mean ± SE
[4] = test system: H460 human non-small cell lung cancer cells; settings: for T/C (%) RTV / T/C (%) TW: vs physiological saline; for RTV / Tumor weight: 29th day, Mean ± SEM; for Tumor volume: mean ± SE
Protocol: The tumor cells were passaged with digestion by trypsin-EDTA twice a week. The cells in the exponential growth phase were collected, counted, and used for inoculation.
5.0×10^6 of H460 tumor cells were suspended in 0.1 ml of PBS, inoculated to each nude mouse at the right shoulder, and there were totally 34 mice inoculated. 8 days later the mean tumor volume was desired to reach about 143 mm^3, the mice with a smaller or larger tumor were removed and the remaining 24 mice were divided into groups randomly according to tumor volume and administrated.

[5] = day 24 after inoculation, 30 mg/kg i.v. BIW×4W
[6] = day 24 after inoculation, 45 mg/kg i.v. QW×4W
[7] = day 28 after inoculation, 30 mg/kg i.v. BIW×4W
[8] = day 28 after inoculation, 45 mg/kg i.v. QW×4W
[9] = day 31 after inoculation, 30 mg/kg i.v. BIW×4W
[10] = day 31 after inoculation, 45 mg/kg i.v. QW×4W
[11] = day 35 after inoculation, 30 mg/kg i.v. BIW×4W
[12] = day 35 after inoculation, 45 mg/kg i.v. QW×4W
[13] = day 38 after inoculation, 30 mg/kg i.v. BIW×4W
[14] = day 42 after inoculation, 30 mg/kg i.v. BIW×4W
[15] = day 42 after inoculation, 45 mg/kg i.v. QW×4W

monomethoxy polyethylene glycol (20K)-glutamic acid dipeptide-rapamycin conjugate [LPR-2]
Body weight of animal ([1]; day 14 after inoculation, 30 mg/kg i.v. BIW×4W): 20.9 ± 0.4 g
Body weight of animal ([1]; day 14 after inoculation, 45 mg/kg i.v. QW×4W): 20.6 ± 0.4 g
Body weight of animal ([1]; day 17 after inoculation, 30 mg/kg i.v. BIW×4W): 21.0 ± 0.4 g
Body weight of animal ([1]; day 17 after inoculation, 45 mg/kg i.v. QW×4W): 20.0 ± 0.4 g
Body weight of animal ([1]; day 21 after inoculation, 30 mg/kg i.v. BIW×4W): 21.7 ± 0.4 g
Body weight of animal ([1]; day 21 after inoculation, 45 mg/kg i.v. QW×4W): 19.9 ± 0.6 g
Body weight of animal [1, 5]: 21.6 ± 0.3 g
Body weight of animal [1, 6]: 20.9 ± 0.5 g
Body weight of animal [1, 7]: 22.4 ± 0.4 g
Body weight of animal [1, 8]: 21.3 ± 0.6 g
Body weight of animal [1, 9]: 21.6 ± 0.4 g
Body weight of animal [1, 10]: 20.7 ± 0.6 g
Body weight of animal [1, 11]: 22.2 ± 0.4 g
Body weight of animal [1, 12]: 21.8 ± 0.6 g
Body weight of animal [1, 13]: 22.3 ± 0.4 g
Body weight of animal [1, 14]: 22.4 ± 0.3 g
Body weight of animal [1, 15]: 21.5 ± 0.5 g
Body weight of animal [2, 5]: 21.6 ± 0.5 g
Body weight of animal [2, 6]: 20.9 ± 0.3 g
Body weight of animal [2, 7]: 20.9 ± 0.4 g
Body weight of animal [2, 8]: 20.8 ± 0.1 g
Body weight of animal [2, 9]: 21.4 ± 0.4 g
Body weight of animal [2, 10]: 21.1 ± 0.2 g
Body weight of animal [2, 11]: 21.8 ± 0.4 g
Body weight of animal [2, 12]: 21.1 ± 0.3 g
Body weight of animal [2, 13]: 21.6 ± 0.4 g
Body weight of animal ([2]; day 38 after inoculation, 45 mg/kg i.v. QW×4W): 21.6 ± 0.3 g
Body weight of animal [2, 14]: 22.5 ± 0.3 g
Body weight of animal [2, 15]: 22.0 ± 0.3 g
Body weight of animal ([2]; day 45 after inoculation, 30 mg/kg i.v. BIW×4W): 22.2 ± 0.3 g
Body weight of animal ([2]; day 45 after inoculation, 45 mg/kg i.v. QW×4W): 22.4 ± 0.3 g
Body weight of animal ([2]; day 49 after inoculation, 30 mg/kg i.v. BIW×4W): 22.0 ± 0.3 g
Body weight of animal ([2]; day 49 after inoculation, 45 mg/kg i.v. QW×4W): 21.5 ± 0.3 g
Body weight of animal ([2]; day 52 after inoculation, 30 mg/kg i.v. BIW×4W): 22.0 ± 0.3 g
Body weight of animal ([2]; day 52 after inoculation, 45 mg/kg i.v. QW×4W): 22.1 ± 0.3 g
Body weight of animal ([3]; day 16 after inoculation, 30 mg/kg i.v. BIW×4W): 20.2 ± 0.6 g
Body weight of animal ([3]; day 16 after inoculation, 45 mg/kg i.v. QW×4W): 19.2 ± 0.5 g
Body weight of animal ([3]; day 20 after inoculation, 30 mg/kg i.v. BIW×4W): 19.7 ± 0.4 g
Body weight of animal ([3]; day 20 after inoculation, 45 mg/kg i.v. QW×4W): 18.6 ± 0.4 g
Body weight of animal ([3]; day 23 after inoculation, 30 mg/kg i.v. BIW×4W): 20.4 ± 0.5 g
Body weight of animal ([3]; day 23 after inoculation, 45 mg/kg i.v. QW×4W): 18.6 ± 0.4 g
Body weight of animal ([3]; day 27 after inoculation, 30 mg/kg i.v. BIW×4W): 19.7 ± 0.5 g
Body weight of animal ([3]; day 27 after inoculation, 45 mg/kg i.v. QW×4W): 17.9 ± 0.4 g
Body weight of animal ([3]; day 30 after inoculation, 30 mg/kg i.v. BIW×4W): 19.1 ± 0.5 g
Body weight of animal ([3]; day 30 after inoculation, 45 mg/kg i.v. QW×4W): 18.2 ± 0.4 g
Body weight of animal ([3]; day 34 after inoculation, 30 mg/kg i.v. BIW×4W): 19.1 ± 0.6 g
Body weight of animal ([3]; day 34 after inoculation, 45 mg/kg i.v. QW×4W): 18.2 ± 0.4 g
Body weight of animal ([3]; day 37 after inoculation, 30 mg/kg i.v. BIW×4W): 18.6 ± 0.4 g
Body weight of animal ([3]; day 37 after inoculation, 45 mg/kg i.v. QW×4W): 18.0 ± 0.3 g
Body weight of animal ([3]; day 41 after inoculation, 30 mg/kg i.v. BIW×4W): 17.9 ± 0.3 g
Body weight of animal ([3]; day 41 after inoculation, 45 mg/kg i.v. QW×4W): 16.7 ± 0.5 g
Body weight of animal ([3]; day 44 after inoculation, 30 mg/kg i.v. BIW×4W): 17.3 ± 0.3 g
Body weight of animal ([3]; day 44 after inoculation, 45 mg/kg i.v. QW×4W): 17.1 ± 0.4 g
TGD (to 1,000 mm^3) ([4]; 30 mg/kg i.v. BIW×3W): >9
T/C (%) RTV ([4]; 30 mg/kg i.v. BIW×3W): 22%
T/C (%) TW ([4]; 30 mg/kg i.v. BIW×3W): 23%
TGD (to 1,000 mm^3) ([4]; 45 mg/kg i.v. QW×3W): >9
T/C (%) RTV ([4]; 45 mg/kg i.v. QW×3W): 25%
T/C (%) TW ([4]; 45 mg/kg i.v. QW×3W): 25%
RTV ([4]; 30 mg/kg i.v. BIW×3W): 3.43 ± 0.32
Tumor weight ([4]; 30 mg/kg i.v. BIW×3W): 364 ± 54 mg
RTV ([4]; 45 mg/kg i.v. QW×3W): 3.86 ± 0.42
Tumor weight ([4]; 45 mg/kg i.v. QW×3W): 406 ± 60 mg
Tumor volume ([4]; day 8 after inoculation, 30 mg/kg i.v. BIW×3W): 143 ± 16 mm^3
Tumor volume ([4]; day 8 after inoculation, 45 mg/kg i.v. QW×3W): 143 ± 18 mm^3
Tumor volume ([4]; day 12 after inoculation, 30 mg/kg i.v. BIW×3W): 213 ± 40 mm^3
Tumor volume ([4]; day 12 after inoculation, 45 mg/kg i.v. QW×3W): 194 ± 33 mm^3
Tumor volume ([4]; day 15 after inoculation, 30 mg/kg i.v. BIW×3W): 208 ± 44 mm^3
Tumor volume ([4]; day 15 after inoculation, 45 mg/kg i.v. QW×3W): 260 ± 46 mm^3
